“Also recorded” adds a separate entry of the source. Positions of bridges follow the written chain, without caps; N, C: chain ends. Non-standard residues stand in square brackets, D forms with d. No end group written: not given here. d2Nal = N[C@H](Cc1ccc2ccccc2c1)C(=O)O; Hyp = O=C(O)[C@@H]1C[C@@H](O)CN1; Nle = CCCC[C@H](N)C(=O)O
Experiments:
[1] = tested on: LPS model of cachexia; assay: LPS-induced cachexia assay in rats; assay type: in vivo, rat; conditions: for peripheral (IP) anti-cachexia activity / blood-brain barrier transport: peripheral administration
Method: The LPS model uses rats were maintained on a 12 h light/dark schedule with ad libitum access to food and water. Animals were handled daily for a minimum of three consecutive days to decrease non-specific handling stress. On the day of the experiment, individually housed animals received intraperitoneal injections of LPS dissolved in 0.5% low-endotoxin BSA, 0.9% saline or 0.5% BSA in 0.9% saline alone, and were returned to their home cage. The drug or control was administered (ICV, IP, or PO, depending on the type of study) 1-hour after LPS injection.
In the experiments performed in accordance with the present technology, a series of melanocortin receptor antagonist peptides were examined in a bacterial endotoxin inducing cachexia assay. For this assay, a rat is challenged with a single peripheral injection of lipopolysaccharide (LPS). LPS is a heat-stable lipo-polysaccharide, the major component of the outer membrane (capsule) of gram negative bacteria. In non-capsulated strains, it appears as a cell surface protein. LPS produces a strong immune response, including secretion of the proinflammatory cytokines Tumor Necrosis Factor α (TNFα) and interleukin-1 (IL-1). Proinflammatory cytokines are known factors that induce cachexia.
Rats are maintained on a 12-hour light/dark cycle. Animals are handled daily for a minimum of 5 consecutive days to acclimate them to the handling required for the experiment. […] On the day of the experiment, individually housed animals receive intraperitoneal (IP) injections of LPS dissolved in 0.5% low-endotoxin BSA, 0.9% saline or 0.5% BSA in 0.9% saline alone, and returned in their home cage. Melanocortin receptor antagonist peptides were administered (IP or by gavage, depending on the type of study) one hour after the LPS injection. The extent of cachexia is measured by the reduction in food intake, measured every two hours. The cachexia typically lasts only a single day. However, rats lose up to 5% of their body weight during a 12-hour light cycle, making up this loss plus food needed for normal growth during the 12-hour dark cycle. Thus, failure to eat appropriately during a single dark cycle is determinable from the animal's weight and any changes thereof.
A series of melanocortin receptor antagonist peptides were examined in a bacterial toxin inducing cachexia assay. In this assay, a rat was challenged with a single peripheral injection of lipopolysaccharide (LPS), a bacterial toxin that rapidly induces acute cachexia. The extent of cachexia was measured as a reduction in food intake, measured every two hours. The cachexia typically lasts only a single day.

[2] = target: human melanocortin 3 receptor (MC3R) (human, UniProt P41968 1-323); assay: cell-based or functional assay
Chain of human melanocortin 3 receptor (MC3R) (P41968 whole entry): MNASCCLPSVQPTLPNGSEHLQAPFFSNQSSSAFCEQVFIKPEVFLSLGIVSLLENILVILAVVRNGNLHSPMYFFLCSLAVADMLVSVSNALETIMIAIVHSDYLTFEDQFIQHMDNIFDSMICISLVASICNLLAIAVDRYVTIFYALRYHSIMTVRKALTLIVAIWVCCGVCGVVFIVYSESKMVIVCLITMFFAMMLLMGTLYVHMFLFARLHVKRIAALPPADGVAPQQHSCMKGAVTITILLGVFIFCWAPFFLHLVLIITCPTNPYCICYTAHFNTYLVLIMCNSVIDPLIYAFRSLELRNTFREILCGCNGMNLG

[3] = target: human melanocortin 4 receptor (MC4R) (human, UniProt P32245 1-332); assay: cell-based or functional assay
Chain of human melanocortin 4 receptor (MC4R) (P32245 whole entry): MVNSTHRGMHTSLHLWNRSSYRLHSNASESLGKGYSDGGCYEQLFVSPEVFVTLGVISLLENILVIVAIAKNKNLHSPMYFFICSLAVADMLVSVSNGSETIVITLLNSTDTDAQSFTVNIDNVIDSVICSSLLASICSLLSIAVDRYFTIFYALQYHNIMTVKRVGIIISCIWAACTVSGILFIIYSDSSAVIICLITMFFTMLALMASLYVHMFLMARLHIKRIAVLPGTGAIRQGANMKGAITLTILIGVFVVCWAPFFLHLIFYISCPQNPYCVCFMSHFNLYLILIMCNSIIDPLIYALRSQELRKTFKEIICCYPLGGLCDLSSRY

Molecule | Max Activation % [2] [%] | Max Activation % [3] [%] | IC50 (cAMP by HTRF, antagonist dose-response) [2] [nM] | also measured
Ac-Nle-c[Asp-His-DNal(2′)-Arg-Trp-Lys]-DPro-DVal-NH2 (Ac-[Nle]DH[d2Nal]RWK[dP][dV]-NH2; lactam 2-7; SMILES CCCC[C@H](NC(C)=O)C(=O)N[C@H]1CC(=O)NCCCC[C@@H](C(=O)N2CCC[C@@H]2C(=O)N[C@@H](C(N)=O)C(C)C)NC(=O)[C@H](Cc2c[nH]c3ccccc23)NC(=O)[C@H](CCCNC(=N)N)NC(=O)[C@@H](Cc2ccc3ccccc3c2)NC(=O)[C@H](Cc2c[nH]cn2)NC1=O) [TCMCB03] |  |  |  | anti-cachectic activity after ICV administration [1]: enhanced anti-cachexia; also recorded: superior anti-cachexia activity following ICV administration; peripheral (IP) anti-cachexia activity / blood-brain barrier transport [1]: failed to cross the blood brain barrier; also recorded: did not possess as good peripheral (intraperitoneal/IP administration) anti-cachexia activity
Ac-Nle-c[Asp-Pro-DNal(2′)-Arg-Trp-Lys]-DVal-DPro (Ac-[Nle]DP[d2Nal]RWK[dV][dP]; lactam 2-7) [TCMCB07A] |  |  |  | peripheral (IP) anti-cachexia activity / blood-brain barrier transport [1]: equivalent stimulation of feeding
Ac-Nle-c[Asp-Pro-DNal(2′)-Arg-Trp-Lys]-β^2Val-β^3Pro-NH2 [TCMCB08] |  |  |  | oral activity / gastrointestinal transport ([1]; gavage (intra-gastric)): no gastrointestinal transport; also recorded: not as much oral activity as TCMCB07; peripheral (IP) anti-cachexia activity / blood-brain barrier transport [1]: has peripheral activity; also recorded: good blood-brain barrier transport
Ac-Nle-c[Asp-Pro-DNal(2′)-Arg-Trp-Lys]-β^3Pro-β^3Pro-NH2 [TCMCB10] |  |  |  | anti-cachectic activity after ICV administration [1]: maintaining direct inhibitory effects; peripheral (IP) anti-cachexia activity / blood-brain barrier transport [1]: showed no peripheral activity
Ac-Nle-c[Asp-Pro-DNal(2′)-Arg-Trp-Lys]-β^3Pro-β^3Val-NH2 [TCMCB06] |  |  |  | food intake and body weight, 24-hours ([1]; 0.2 mg/kg intraperitoneally): ate less food than the other non-naturally occurring melanocortin analogs, and had no weight gain; anti-cachectic activity after ICV administration [1]: molar activity equivalent to TCMCB02; molar activity relative to TCMCB02 ([1]; ICV-administration): 10 fold
LDPFFRWKVP (lactam 2-8) [B3] | 0.83 | 4.41 |  | 
Ac-[Nle]D[Hyp][d2Nal]RWPK[dV][dP]-NH2 (lactam 2-8; SMILES CCCC[C@H](NC(C)=O)C(=O)N[C@H]1CC(=O)NCCCC[C@@H](C(=O)N[C@@H](C(=O)N2CCC[C@@H]2C(N)=O)C(C)C)NC(=O)[C@@H]2CCCN2C(=O)[C@H](Cc2c[nH]c3ccccc23)NC(=O)[C@H](CCCNC(=N)N)NC(=O)[C@@H](Cc2ccc3ccccc3c2)NC(=O)[C@@H]2C[C@@H](O)CN2C1=O) [D4] | 50.1 | 21 | > 10000 | 
Ac-[Nle]D[Hyp][d2Nal]RWK[dV][dP]-NH2 (lactam 2-7; SMILES CCCC[C@H](NC(C)=O)C(=O)N[C@H]1CC(=O)NCCCC[C@@H](C(=O)N[C@@H](C(=O)N2CCC[C@@H]2C(N)=O)C(C)C)NC(=O)[C@H](Cc2c[nH]c3ccccc23)NC(=O)[C@H](CCCNC(=N)N)NC(=O)[C@@H](Cc2ccc3ccccc3c2)NC(=O)[C@@H]2C[C@@H](O)CN2C1=O) [D3] | 111 | 117 | 87 | IC50 (cAMP by HTRF, antagonist dose-response) [3]: 40.6 nM
Ac-[Nle]DPFFRWK[dV][dP]-NH2 (lactam 2-8; SMILES CCCC[C@H](NC(C)=O)C(=O)N[C@H]1CC(=O)NCCCC[C@@H](C(=O)N[C@@H](C(=O)N2CCC[C@@H]2C(N)=O)C(C)C)NC(=O)[C@H](Cc2c[nH]c3ccccc23)NC(=O)[C@H](CCCNC(=N)N)NC(=O)[C@H](Cc2ccccc2)NC(=O)[C@H](Cc2ccccc2)NC(=O)[C@@H]2CCCN2C1=O) [B1] | 6.86 | 12.7 |  | 
Ac-[Nle]DPH[d2Nal]RWK[dP][dV]-NH2 (lactam 2-8; SMILES CCCC[C@H](NC(C)=O)C(=O)N[C@H]1CC(=O)NCCCC[C@@H](C(=O)N2CCC[C@@H]2C(=O)N[C@@H](C(N)=O)C(C)C)NC(=O)[C@H](Cc2c[nH]c3ccccc23)NC(=O)[C@H](CCCNC(=N)N)NC(=O)[C@@H](Cc2ccc3ccccc3c2)NC(=O)[C@H](Cc2c[nH]cn2)NC(=O)[C@@H]2CCCN2C1=O) [D5] | 24.6 | 41.5 | > 10000 | 
Ac-[Nle]DH[d2Nal]RWPK[dV][dP]-NH2 (lactam 2-8; SMILES CCCC[C@H](NC(C)=O)C(=O)N[C@H]1CC(=O)NCCCC[C@@H](C(=O)N[C@@H](C(=O)N2CCC[C@@H]2C(N)=O)C(C)C)NC(=O)[C@@H]2CCCN2C(=O)[C@H](Cc2c[nH]c3ccccc23)NC(=O)[C@H](CCCNC(=N)N)NC(=O)[C@@H](Cc2ccc3ccccc3c2)NC(=O)[C@H](Cc2c[nH]cn2)NC1=O) [D2] | 31.8 | 17.6 |  | 
VDPWRWKVP [C9] | 1.24 | 5.89 |  | 
Ac-[Nle]DP[d2Nal]RWK[dV][dP]-NH2 (lactam 2-7) [TCMCB07] | 112 | 118 | 43.4 | IC50 (cAMP by HTRF, antagonist dose-response) [3]: 26.9 nM

The next lines start with results.

Max Activation % [2] [%] | Max Activation % [3] [%] | IC50 (cAMP by HTRF, antagonist dose-response) [2] [nM] | Molecule | also measured
10.3 | 35.5 |  | Ac-LDPFFRWKVP-NH2 (lactam 2-8; SMILES CC(=O)N[C@@H](CC(C)C)C(=O)N[C@H]1CC(=O)NCCCC[C@@H](C(=O)N[C@H](C(=O)N2CCC[C@H]2C(N)=O)C(C)C)NC(=O)[C@H](Cc2c[nH]c3ccccc23)NC(=O)[C@H](CCCNC(=N)N)NC(=O)[C@H](Cc2ccccc2)NC(=O)[C@H](Cc2ccccc2)NC(=O)[C@@H]2CCCN2C1=O) [B2] | 
84.4 | 79.3 | 3660 | Ac-[Nle]DP[d2Nal]RWK[dV][dP]-NH2 (SMILES CCCC[C@H](NC(C)=O)C(=O)N[C@@H](CC(=O)O)C(=O)N1CCC[C@H]1C(=O)N[C@H](Cc1ccc2ccccc2c1)C(=O)N[C@@H](CCCNC(=N)N)C(=O)N[C@@H](Cc1c[nH]c2ccccc12)C(=O)N[C@@H](CCCCN)C(=O)N[C@@H](C(=O)N1CCC[C@@H]1C(N)=O)C(C)C) [A1] | IC50 (cAMP by HTRF, antagonist dose-response) [3]: 3610 nM
74.5 | 49.4 | 5810 | Ac-[Nle]DPH[d2Nal]RWK[dV][dP]-NH2 (lactam 2-8; SMILES CCCC[C@H](NC(C)=O)C(=O)N[C@H]1CC(=O)NCCCC[C@@H](C(=O)N[C@@H](C(=O)N2CCC[C@@H]2C(N)=O)C(C)C)NC(=O)[C@H](Cc2c[nH]c3ccccc23)NC(=O)[C@H](CCCNC(=N)N)NC(=O)[C@@H](Cc2ccc3ccccc3c2)NC(=O)[C@H](Cc2c[nH]cn2)NC(=O)[C@@H]2CCCN2C1=O) [D1] | IC50 (cAMP by HTRF, antagonist dose-response) [3]: > 10000 nM
0.47 | 3.02 |  | IDPWRWKVP [C8] | 
-0.8 | 6.41 |  | VPWRWVP [C6] | 
7.81 | 16.1 |  | LPFFRWVP [B4] | 
0.16 | 5.86 |  | LDPWRWKVP [C7] | 
101 | 120 | 1360 | Ac-[Nle]DP[d2Nal]RWK[dP][dV]-NH2 (lactam 2-7; SMILES CCCC[C@H](NC(C)=O)C(=O)N[C@H]1CC(=O)NCCCC[C@@H](C(=O)N2CCC[C@@H]2C(=O)N[C@@H](C(N)=O)C(C)C)NC(=O)[C@H](Cc2c[nH]c3ccccc23)NC(=O)[C@H](CCCNC(=N)N)NC(=O)[C@@H](Cc2ccc3ccccc3c2)NC(=O)[C@@H]2CCCN2C1=O) [TCMCB02] | IC50 (cAMP by HTRF, antagonist dose-response) [3]: 57.1 nM
